These results are taken from paper PMC9357037.

The assay concerns the target TEMPOL-122-αS (N122C α-synuclein spin-labelled at position 122) (UniProt P37840). The assay is described as follows: CW-EPR titration (site-directed spin labelling); apparent; TEMPOL-122-αS kept at 50 μM, poly-cation titrated at increasing molar ratios; LLPS buffer without crowder (no PEG); 25 °C; band III/band II amplitude fitted to an approximate model with n identical and independent binding sites.

Turning to poly-L-lysine of 100 residues (peptide), the Kd is 5 µM.
